Assay results as given in patent US20030134799A1.

These substances were tested against NMDA receptor of well-washed rat forebrain membranes (rat) (UniProt Q9R1M7) (assay: not given).
Chain of NMDA receptor of well-washed rat forebrain membranes (rat) (Q9R1M7 24-1135): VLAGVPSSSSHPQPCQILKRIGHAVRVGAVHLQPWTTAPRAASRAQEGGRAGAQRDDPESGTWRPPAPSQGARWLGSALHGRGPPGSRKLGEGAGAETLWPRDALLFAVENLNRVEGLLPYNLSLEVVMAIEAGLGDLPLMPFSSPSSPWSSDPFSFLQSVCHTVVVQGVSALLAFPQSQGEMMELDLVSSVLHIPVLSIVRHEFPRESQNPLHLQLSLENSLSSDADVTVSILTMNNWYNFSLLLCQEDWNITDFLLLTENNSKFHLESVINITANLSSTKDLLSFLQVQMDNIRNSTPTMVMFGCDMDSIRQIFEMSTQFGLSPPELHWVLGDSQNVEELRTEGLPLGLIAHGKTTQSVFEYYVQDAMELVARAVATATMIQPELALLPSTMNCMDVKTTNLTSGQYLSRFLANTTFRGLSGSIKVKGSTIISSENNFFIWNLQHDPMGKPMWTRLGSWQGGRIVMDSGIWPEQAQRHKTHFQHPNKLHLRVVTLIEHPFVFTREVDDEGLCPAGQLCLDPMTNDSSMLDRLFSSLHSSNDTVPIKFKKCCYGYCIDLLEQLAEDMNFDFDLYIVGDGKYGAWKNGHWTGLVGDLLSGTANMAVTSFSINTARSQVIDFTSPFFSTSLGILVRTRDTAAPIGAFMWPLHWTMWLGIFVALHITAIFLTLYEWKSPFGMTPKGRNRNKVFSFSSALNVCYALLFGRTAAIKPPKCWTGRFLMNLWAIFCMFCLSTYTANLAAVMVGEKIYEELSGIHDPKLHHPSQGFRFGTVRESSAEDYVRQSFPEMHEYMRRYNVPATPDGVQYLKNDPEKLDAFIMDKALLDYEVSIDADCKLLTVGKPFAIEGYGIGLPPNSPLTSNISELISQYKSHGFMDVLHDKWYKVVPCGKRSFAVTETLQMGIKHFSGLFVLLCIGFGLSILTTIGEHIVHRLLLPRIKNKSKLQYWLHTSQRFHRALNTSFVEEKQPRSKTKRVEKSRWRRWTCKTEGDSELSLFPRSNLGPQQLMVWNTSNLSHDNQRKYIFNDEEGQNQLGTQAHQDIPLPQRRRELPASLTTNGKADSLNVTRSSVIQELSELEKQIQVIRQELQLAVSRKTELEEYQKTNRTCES

| Substance | IC50 |
| --- | --- |
| Ala7-Con-G (peptide) | > 2500 nM |

These substances were tested against NMDA receptor of well-washed rat forebrain membranes (rat) (UniProt Q9R1M7) (assay: displacement of [3H]ifenprodil, polyamine-sensitive site).

| Substance | IC50 |
| --- | --- |
| Ala7-Con-G (peptide) | 2500 nM |

The substances below were run against NMDA receptor of well-washed rat forebrain membranes (rat) (UniProt Q9R1M7) (assay: cell-based or functional assay).

| Substance | % Inh, spermine-enhanced [3H]MK-801 binding | % Sti, [3H]MK-801 binding without spermine | IC (µM), inhibition of spermine-enhanced [3H]MK-801 binding | IC50, antagonism of Gly-stimulated [3H]MK-801 binding, representative experiment | IC50, inhibition of spermine-enhanced [3H]MK-801 binding | IC50, inhibition of spermine-enhanced [3H]MK-801 binding, typical experiment | IC50, reduction of Gly stimulated [3H]MK-801 binding | IC50, reduction of spermine stimulated [3H]MK-801 binding | potency against spermine relative to Con-G | EC (µM), stimulation of [3H]MK-801 binding without spermine |
| --- | --- | --- | --- | --- | --- | --- | --- | --- | --- | --- |
| Ac-Con-G (peptide) | 0% | 0% |  |  |  |  |  |  |  |  |
| Ac-Tyr^o-Con-G (peptide) | 73% | 0% | 18.3 µM |  |  |  |  |  |  |  |
| Ala3-Con-G (peptide) | 34% | 0% | 1.8 µM |  |  |  |  |  |  |  |
| Ala4-Con-G (peptide) | 0% | 0% |  |  |  |  |  |  |  |  |
| Ala7,10,14-Con-G (peptide) | 100% | 0% | 0.5 µM |  |  |  |  |  |  |  |
| Ala7-Con-G (peptide) | 100% | 0% | 0.046 µM | 625 nM | 45 nM | 50 nM | 500 nM | 45 nM | 4 fold |  |
| Ala10-Con-G (peptide) | 100% | 0% | 1.1 µM |  |  |  |  |  |  |  |
| Ala14-Con-G (peptide) | 100% | 0% | 0.16 µM |  |  |  |  |  |  |  |
| Asn(GlcNAc)^o-Con-G (peptide) | 38% | 0% | 8.8 µM |  |  |  |  |  |  |  |
| Asn^o-Con-G (peptide) | 83% | 0% | 8.7 µM |  |  |  |  |  |  |  |
| Con-G(1-5) (peptide) | 50% | 0% | 7.43 µM |  |  |  |  |  |  |  |
| Con-G(12-15) (peptide) | 0% | 20% |  |  |  |  |  |  |  | 69.8 µM |
| Con-G(12-17) (peptide) | 0% | 20% |  |  |  |  |  |  |  | 58 µM |
| Con-G(14-17) (peptide) | 0% | 61% |  |  |  |  |  |  |  | 1.3 µM |
| Con-G(15-17) (peptide) | 0% | 20% |  |  |  |  |  |  |  | 61.7 µM |
| Con-G-OH (peptide) | 0% | 0% |  |  |  |  |  |  |  |  |
| ConG(1-5)(14-17) (peptide) | 15% | 0% | 100 µM |  |  |  |  |  |  |  |
| ConG(1-5)AA(14-17) (peptide) |  | 0% |  |  |  |  |  |  |  |  |
| ConG(1-5)AAAA(14-17) (peptide) |  | 0% |  |  |  |  |  |  |  |  |
| ConG(1-5)GG(14-17) (peptide) |  | 0% |  |  |  |  |  |  |  |  |
| ConG(1-5)GGGG(14-17) (peptide) |  | 0% |  |  |  |  |  |  |  |  |
| ConG(1-6)A5(14-17) (peptide) |  | 0% |  |  |  |  |  |  |  |  |
| ConG(1-6)A7(14-17) (peptide) |  | 0% |  |  |  |  |  |  |  |  |
| D-Glu3,4,7,10,14-Con-G (peptide) | 0% | 30% |  |  |  |  |  |  |  | 5.8 µM |
| Glu3,4,7,10,14-Con-G (peptide) | 22% | 79% | 8.5 µM |  |  |  |  |  |  | 6.7 µM |
| Glu4-Con-G (peptide) | 0% | 0% |  |  |  |  |  |  |  |  |
| Glu7,10,14-Con-G (peptide) | 70% | 0% | > 5 µM |  |  |  |  |  |  |  |

| Substance | % Inh, spermine-enhanced [3H]MK-801 binding | % Sti, [3H]MK-801 binding without spermine | IC (µM), inhibition of spermine-enhanced [3H]MK-801 binding | IC50, antagonism of Gly-stimulated [3H]MK-801 binding, representative experiment | IC50, inhibition of spermine-enhanced [3H]MK-801 binding | IC50, inhibition of spermine-enhanced [3H]MK-801 binding, typical experiment | IC50, reduction of Gly stimulated [3H]MK-801 binding | IC50, reduction of spermine stimulated [3H]MK-801 binding | potency against spermine relative to Con-G | EC (µM), stimulation of [3H]MK-801 binding without spermine |
| --- | --- | --- | --- | --- | --- | --- | --- | --- | --- | --- |
| Glu10,14-Con-G(9-17) (peptide) | 0% | 0% |  |  |  |  |  |  |  |  |
| Glu14-Con-G(12-17) (peptide) | 0% | 30% |  |  |  |  |  |  |  | 47 µM |
| Glu 3,4,7,10,14-Con-G(2-17) (peptide) | 70% | 33% | 5.4 µM |  |  |  |  |  |  | 0.9 µM |
| Glu 7,10,14-Con-G(6-17) (peptide) | 0% | 0% |  |  |  |  |  |  |  |  |
| Phe(pCl)^o-Con-G (peptide) | 0% | 0% |  |  |  |  |  |  |  |  |
| Phe^o-Con-G (peptide) | 51% | 53% | 6.1 µM |  |  |  |  |  |  | 6.8 µM |
| Ser3-Con-G (peptide) | 23% | 62% | 3.6 µM |  |  |  |  |  |  | 8.4 µM |
| Ser4-Con-G (peptide) | 0% | 0% |  |  |  |  |  |  |  |  |
| Ser7-Con-G (peptide) | 100% | 0% | 0.25 µM |  |  |  |  |  |  |  |
| Ser10-Con-G (peptide) | 100% | 0% | 1.8 µM |  |  |  |  |  |  |  |
| Ser14-Con-G (peptide) | 100% | 0% | 0.16 µM |  |  |  |  |  |  |  |
| Ser(p)3-Con-G (peptide) | 34% | 68% | 0.9 µM |  |  |  |  |  |  | 3.5 µM |
| Ser(p)4-Con-G (peptide) | 0% | 0% |  |  |  |  |  |  |  |  |
| Ser(p)7-Con-G (peptide) | 50% | 0% | 1.04 µM |  |  |  |  |  |  |  |
| Ser(p)10-Con-G (peptide) | 100% | 0% | 0.56 µM |  |  |  |  |  |  |  |
| Ser(p)14-Con-G (peptide) | 31% | 0% | 1.12 µM |  |  |  |  |  |  |  |
| Ser^o-Con-G (peptide) | 41% | 0% | 6.8 µM |  |  |  |  |  |  |  |
| Tyr3-Con-G (peptide) | 0% | 0% |  |  |  |  |  |  |  |  |
| Tyr7-Con-G (peptide) | 100% | 0% | 0.5 µM |  |  |  |  |  |  |  |
| Tyr(oMe)^o-Con-G (peptide) | 0% | 0% |  |  |  |  |  |  |  |  |
| Tyr(p)^o-Con-G (peptide) | 0% | 0% |  |  |  |  |  |  |  |  |
| Tyr^o-Con-G (peptide) | 0% | 0% |  |  |  |  |  |  |  |  |
| Tyr^o-Glu3,4,7,10,14-Con-G (peptide) | 0% | 31% |  |  |  |  |  |  |  | 2.7 µM |
| di-iodo-Tyr7-Con-G (peptide) | 100% | 0% | 0.5 µM |  |  |  |  |  |  |  |
| iodo-Tyr7-Con-G (peptide) | 100% | 0% | 0.5 µM |  |  |  |  |  |  |  |
| tBu-Tyr^o-Con-G (peptide) | 29% | 69% | 1.5 µM |  |  |  |  |  |  | 1 µM |

These substances were tested against NMDA receptor of primary cultures of rat cerebellar granule cells (rat) (assay: cell-based or functional assay).

| Substance | IC50, inhibition of NMDA-stimulated increases in cyclic GMP formation | potency in the cyclic GMP assay relative to Con-G |
| --- | --- | --- |
| Ala7-Con-G (peptide) | 77 nM | 4 fold |
